# Experimental data taken from patent US20060270599A1, “Inhibiting angiogenesis using molecules that enhance plasmin formation or prolong plasmin activity” (Crossbeta Biosciences B.V., priority 2000, published 2006).
# B1: endostatin: Recombinant murine endostatin produced by Escherichia coli (protein, UniProt P39061 1591-1774, looked up)
# Endostatin: HTHQDFQPVLHLVALNTPLSGGMRGIRGADFQCFQQARAVGLSGTFRAFLSSRLQDLYSIVRRADRGSVPIVNLKDEVLSPSWDSLFSGSQGQLQPGARIFSFDGRDVLRHPAWPQKSVWHGSDPSGRRLMESYCETWRTETTGATGQASSLLSGRLLEQKAASCHNSYIVLCIENSFMTSFSK
# modifications: Endostatin
# notes: Recombinant murine endostatin produced by Escherichia coli
# B2: tPA: Alteplase (recombinant tPA), tissue plasminogen activator (protein, UniProt P00750 36-562, looked up)
# Tissue-type plasminogen …: SYQVICRDEKTQMIYQQHQSWLRPVLRSNRVEYCWCNSGRAQCHSVPVKSCSEPRCFNGGTCQQALYFSDFVCQCPEGFAGKCCEIDTRATCYEDQGISYRGTWSTAESGAECTNWNSSALAQKPYSGRRPDAIRLGLGNHNYCRNPDRDSKPWCYVFKAGKYSSEFCSTPACSEGNSDCYFGNGSAYRGTHSLTESGASCLPWNSMILIGKVYTAQNPSAQALGLGKHNYCRNPDGDAKPWCHVLKNRRLTWEYCDVPSCSTCGLRQYSQPQFRIKGGLFADIASHPWQAAIFAKHRRSPGERFLCGGILISSCWILSAAHCFQERFPPHHLTVILGRTYRVVPGEEEQKFEVEKYIVHKEFDDDTYDNDIALLQLKSDSSRCAQESSVVRTVCLPPADLQLPDWTECELSGYGKHEALSPFYSERLKEAHVRLYPSSRCTSQHLLNRTVTDNMLCAGDTRSGGPQANLHDACQGDSGGPLVCLNDGRMTLVGIISWGLGCGQKDVPGVYTKVTNYLDWIRDNMRP
# What was measured:
# [1] = system: mouse C26 colon carcinoma; assay: Subcutaneous tumor growth of mouse C26 colon carcinoma; type: in vivo; details: BALB/c mice, eleven days after tumor cell inoculation, mean ± standard error of the mean, control 2719±366
# Procedure: FIG. 1: Effect of fibrin degradation products (FDP) on tumor growth. For comparison, treatments with Alteplase® (recombinant tPA) or endostatin is shown. FDP was given continuously using Alzet® pumps (Alza, Palo Alto, Calif., USA, type 2001 or 2002) loaded with 200 μl FDP (5 mg/ml). In addition, every other day, FDP was given subcutaneously at a dose of 7 mg/kg.
# A model of subcutaneous tumor growth of a mouse C26 colon carcinoma was used to evaluate the effects of FDP. Eleven days after tumor cell inoculation, tumors of the control group had reached a volume of 2719±366 mm^3. In mice treated with FDP, the mean tumor growth was 719±188 mm^3. […] Treatment with tPA, which generates plasmin, suppressed tumor growth to a similar degree (tumor volume 492±215 mm^3) as FDP.
# The mouse colon adenocarcinoma cell line C-26 was maintained as a monolayer culture in Dulbecco's Minimal Essential Medium (DMEM) supplemented with 10% heat-inactivated fetal calf serum, penicillin (100 units/ml), and streptomycin (100 μg/ml) in a 5% CO2 environment. […] The presence of single cell suspension was confirmed by phase contrast microscopy, and cell viability was determined by trypan blue staining. […]
# The statistical significance of differences between groups was calculated by applying Student's 2-tailed t-test. […]
# [2] = target: tPA-mediated plasmin formation from plasminogen (Homo sapiens, UniProt P00750); assay: Measurement of plasmin activity (tPA-mediated plasmin generation, S-2251); type: biochemical; details: 50 μg/ml plasminogen, 30 U/ml tPA, 37° C. (FIG. 3)
# Procedure: FIG. 3: Effect on plasmin activity of (A) endostatin, (B) human vitronectin fragment+(a.a. 262-367) (SEQ ID NO:1), (C) FDP, and (D) peptide derived from FDP (a.a. 148-160) (SEQ ID NO: 2).
# Effect of FDP, FDP-derived synthetic peptide (a.a. 148-160) (SEQ ID NO:2), fragment (a.a. 262-367) vitronectin (SEQ ID NO:1), and endostatin on plasmin generation. Various concentrations were added.
# Reactions were performed at 37° C. in HBS buffer (20 mM Hepes, 4 mM KCl, 137 mM NaCl, 3 mM CaCl2, 0.1% BSA, pH 7.4) containing 50 μg/ml plasminogen with or without the addition of endostatin or FDP. The reactions were started by the addition of tPA at a final concentration of 30 U/ml. At several time points, 20 μl samples were taken and stopped with 20 μl buffer containing 150 mM εACA and 150 mM EDTA. Plasmin activity was determined in 96-well plates after the addition of 20 μl chromogenic substrate S-2251 at a final concentration of 1.6 mM. Increase in absorbance was measured at 405 nm for 10 min.
Molecule,tumor volume [1] [mm^3],stimulation of tPA-mediated plasmin formation [2]
B1,1112±372,ability to stimulate tPA-mediated plasmin formation
B2,492±215,–
